± gives the standard deviation of the averaged measurements.
Experiment: total protein half-life in vivo (active degradation + dilution); higher = more stable protein
[1] = E. coli NCM3722 delta-clpP delta-lon delta-hslV, growth: N-lim chemostat, doubling time 6 h
[2] = E. coli NCM3722 delta-hslV, growth: N-lim chemostat, doubling time 6 h
[3] = E. coli NCM3722 delta-lon, growth: N-lim chemostat, doubling time 6 h
[4] = E. coli NCM3722 delta-smpB, growth: N-lim chemostat, doubling time 6 h
[5] = wild type E. coli NCM3722, growth: C-lim chemostat, doubling time 3 h
[6] = wild type E. coli NCM3722, growth: C-lim chemostat, doubling time 6 h
[7] = wild type E. coli NCM3722, growth: N-lim chemostat, doubling time 6 h
[8] = wild type E. coli NCM3722, growth: N-lim chemostat, doubling time 12 h
[9] = wild type E. coli NCM3722, growth: P-lim chemostat, doubling time 12 h
[10] = E. coli NCM3722 delta-clpP, growth: N-lim chemostat, doubling time 6 h
[11] = wild type E. coli NCM3722, growth: P-lim chemostat, doubling time 6 h
[12] = wild type E. coli NCM3722, growth: C-lim chemostat, doubling time 12 h

| Sequence | total protein half-life in vivo [1] | total protein half-life in vivo [2] | total protein half-life in vivo [3] | total protein half-life in vivo [4] | total protein half-life in vivo [5] | total protein half-life in vivo [6] | total protein half-life in vivo [7] | total protein half-life in vivo [8] | total protein half-life in vivo [9] | total protein half-life in vivo [10] | total protein half-life in vivo [11] | total protein half-life in vivo [12] |
| --- | --- | --- | --- | --- | --- | --- | --- | --- | --- | --- | --- | --- |
| MKKKRPVLQDVADRVGVTKMTVSRFLRNPEQVSVALRGKIAAALDELGYIPNRAPDILSNATSRAIGVLLPSLTNQVFAEVLRGIESVTDAHGYQTMLAHYGYKPEMEQERLESMLSWNIDGLILTERTHTPRTLKMIEVAGIPVVELMDSKSPCLDIAVGFDNFEAARQMTTAIIARGHRHIAYLGARLDERTIIKQKGYEQAMLDAGLVPYSVMVEQSSSYSSGIELIRQARREYPQLDGVFCTNDDLAVGAAFECQRLGLKVPDDMAIAGFHGHDIGQVMEPRLASVLTPRERMGSIGAERLLARIRGESVTPKMLDLGFTLSPGGSI [P0ACP5] | 6.42 ± 0.18 h | 5.79 ± 0.47 h | 5.99 ± 1 h | 5.75 ± 0.31 h | > 4 h | 6.6 ± 0.52 h | 6.14 ± 0.46 h | 14.4 ± 1.9 h | > 16 h |  |  |  |
| MSDNAQLTGLCDRFRGFYPVVIDVETAGFNAKTDALLEIAAITLKMDEQGWLMPDTTLHFHVEPFVGANLQPEALAFNGIDPNDPDRGAVSEYEALHEIFKVVRKGIKASGCNRAIMVAHNANFDHSFMMAAAERASLKRNPFHPFATFDTAALAGLALGQTVLSKACQTAGMDFDSTQAHSALYDTERTAVLFCEIVNRWKRLGGWPLSAAEEV | 5.4962 ± 0.0014 h | 5.13 h | 6.1 h |  | 2.54 h | 5.95 ± 0.48 h | 5.89 h | 8.59 h | 12 ± 0.56 h | 5.43 ± 0.51 h | 5.17 h |  |
| MAINFSPKVGEILECNFGNYPVSQNGPFSTTYYDGRIPPEMIKNRLVVVLNGKINGNACIVVPLSTTRDQDKLKRGMHVEIASNVINDLQFFDQQIRWAKADLVQQVSRNRLNRARTYRGYLNQCLPHELVADIQRAVIKSINAISLIN |  |  |  |  |  | 6.12 h |  |  | 8.56 ± 0.1 h |  | 4.05 h | 8.7 ± 2 h |
| MTTQYGFFIDSSRCTGCKTCELACKDYKDLTPEVSFRRIYEYAGGDWQEDNGVWHQNVFAYYLSISCNHCEDPACTKVCPSGAMHKREDGFVVVDEDVCIGCRYCHMACPYGAPQYNETKGHMTKCDGCYDRVAEGKKPICVESCPLRALDFGPIDELRKKHGDLAAVAPLPRAHFTKPNIVIKPNANSRPTGDTTGYLANPKEV | 5.26 h |  |  |  |  | 6.7 h |  |  |  |  |  |  |
| MERNVTLDFVRGVAILGILLLNISAFGLPKAAYLNPAWYGAITPRDAWTWAFLDLIGQVKFLTLFALLFGAGLQMLLPRGRRWIQSRLTLLVLLGFIHGLLFWDGDILLAYGLVGLICWRLVRDAPSVKSLFNTGVMLYLVGLGVLLLLGLISDSQTSRAWTPDASAILYEKYWKLHGGVEAISNRADGVGNSLLALGAQYGWQLAGMMLIGAALMRSGWLKGQFSLRHYRRTGFVLVAIGVTINLPAIALQWQLDWAYRWCAFLLQMPRELSAPFQAIGYASLFYGFWPQLSRFKLVLAIACVGRMALTNYLLQTLICTTLFYHLGLFMHFDRLELLAFVIPVWLANILFSVIWLRYFRQGPVEWLWRQLTLRAAGPAISKTSR |  | 5.75 ± 1.1 h | 6.13 ± 0.32 h | 5.67 ± 0.66 h |  | 6.471 ± 0.017 h | 6.72 ± 0.74 h | 7.45 ± 4 h | 11.6 ± 0.22 h | 5.73 ± 0.069 h | 5.19 ± 0.44 h | 10.3 ± 1.2 h |
| MSNLAAMLRLPANLKSTQWQILAGPILILLILSMMVLPLPAFILDLLFTFNIALSIMVLLVAMFTQRTLEFAAFPTILLFTTLLRLALNVASTRIILMEGHTGAAAAGKVVEAFGHFLVGGNFAIGIVVFVILVIINFMVITKGAGRIAEVGARFVLDGMPGKQMAIDADLNAGLIGEDEAKKRRSEVTQEADFYGSMDGASKFVRGDAIAGILIMVINIVGGLLVGVLQHGMSMGHAAESYTLLTIGDGLVAQIPALVISTAAGVIVTRVSTDQDVGEQMVNQLFSNPSVMLLSAAVLGLLGLVPGMPNLVFLLFTAGLLGLAWWIRGREQKAPAEPKPVKMAENNTVVEATWNDVQLEDSLGMEVGYRLIPMVDFQQDGELLGRIRSIRKKFAQEMGFLPPVVHIRDNMDLQPARYRILMKGVEIGSGDAYPGRWLAINPGTAAGTLPGEATVDPAFGLNAIWIESALKEQAQIQGYTVVEASTVVATHLNHLISQHAAELFGRQEAQQLLDRVAQEMPKLTEDLVPGVVTLTTLHKVLQNLLDEKVPIRDMRTILETLAEHAPIQSDPHELTAVVRVALGRAITQQWFPGKDEVHVIGLDTPLERLLLQALQGGGGLEPGLADRLLAQTQEALSRQEMLGAPPVLLVNHALRPLLSRFLRRSLPQLVVLSNLELSDNRHIRMTATIGGK |  |  |  |  | 2.13 ± 0.33 h | 3.87 h |  |  | 14.5 h |  |  | 8.63 h |
| MRTSQYLLSTLKETPADAEVISHQLMLRAGMIRKLASGLYTWLPTGVRVLKKVENIVREEMNNAGAIEVSMPVVQPADLWQESGRWEQYGPELLRFVDRGERPFVLGPTHEEVITDLIRNELSSYKQLPLNFYQIQTKFRDEVRPRFGVMRSREFLMKDAYSFHTSQESLQETYDAMYAAYSKIFSRMGLDFRAVQADTGSIGGSASHEFQVLAQSGEDDVVFSDTSDYAANIELAEAIAPKEPRAAATQEMTLVDTPNAKTIAELVEQFNLPIEKTVKTLLVKAVEGSSFPQVALLVRGDHELNEVKAEKLPQVASPLTFATEEEIRAVVKAGPGSLGPVNMPIPVVIDRTVAAMSDFAAGANIDGKHYFGINWDRDVATPEVADIRNVVAGDPSPDGQGRLLIKRGIEVGHIFQLGTKYSEALKASVQGEDGRNQILTMGCYGIGVTRVVAAAIEQNYDERGIVWPDAIAPFQVAILPMNMHKSFRVQELAEKLYSELRAQGIEVLLDDRKERPGVMFADMELIGIPHTIVLGDRNLDNDDIEYKYRRNGEKQLIKTGDIVEYLVKQIKG | 5.92 ± 0.2 h | 5.37 ± 0.21 h | 6.14 ± 0.13 h | 5.24 ± 0.2 h | 3.1 ± 0.061 h | 6.12 ± 0.33 h | 5.4 ± 0.19 h | 10.6 ± 0.72 h | 12.2 ± 1.2 h | 5.61 ± 0.85 h | 6.14 ± 0.17 h | 10.9 ± 0.57 h |
| MQWQTKLPLIAILRGITPDEALAHVGAVIDAGFDAVEIPLNSPQWEQSIPAIVDAYGDKALIGAGTVLKPEQVDALARMGCQLIVTPNIHSEVIRRAVGYGMTVCPGCATATEAFTALEAGAQALKIFPSSAFGPQYIKALKAVLPSDIAVFAVGGVTPENLAQWIDAGCAGAGLGSDLYRAGQSVERTAQQAAAFVKAYREAVQ [Q6BF16] | 4.76 h |  |  |  | 2.04 h | 3.84 h |  |  |  |  |  | 8.18 h |

Reference: the supplement of paper PMC11246515
